# B1: TAK1wt: wild-type murine TAK1 (long splice form) cloned from kidney, expressed from plasmid in transfected cells (protein)
# chain: MSTASAASSSSSSSASEMIEAPSQVLNFEEIDYKEIEVEEVVGRGAFGVVCKAKWRAKDVAIKQIESESERKAFIVELRQLSRVNHPNIVKLYGACLNPVCLVMEYAEGGSLYNVLHGAEPLPYYTAAHAMSWCLQCSQGVAYLHSMQPKALIHRDLKPPNLLLVAGGTVLKICDFGTACDIQTHMTNNKGSAAWMAPEVFEGSNYSEKCDVFSWGIILWEVITRRKPFDEIGGPAFRIMWAVHNGTRPPLIKNLPKPIESLMTRCWSKDPSQRPSMEEIVKIMTHLMRYFPGADEPLQYPCQYSDEGQSNSATSTGSFMDIASTNTSNKSDTNMEQVPATNDTIKRLESKLLKNQAKQQSESGRLSLGASRGSSVESLPPTSEGKRMSADMSEIEARIVATAAYSKPKRGHRKTASFGNILDVPEIVISGNGQPRRRSIQDLTVTGTEPGQVSSRSSSPSVRMITTSGPTSEKPARSHPWTPDDSTDTNGSDNSIPMAYLTLDHQLQPLAPCPNSKESMAVFEQHCKMAQEYMKVQTEIALLLQRKQELVAELDQDEKDQQNTSRLVQEHKKLLDENKSLSTYYQQCKKQLEVIRSQQQKRQGTS
# modifications: left off: small tags and cut ends
# notes: wild-type murine TAK1 (long splice form) cloned from kidney, expressed from plasmid in transfected cells
# B2: TAKDN: TAK1 Δ1-300 N-terminal deletion mutant (protein)
# chain: PCQYSDEGQSNSATSTGSFMDIASTNTSNKSDTNMEQVPATNDTIKRLESKLLKNQAKQQSESGRLSLGASRGSSVESLPPTSEGKRMSADMSEIEARIVATAAYSKPKRGHRKTASFGNILDVPEIVISGNGQPRRRSIQDLTVTGTEPGQVSSRSSSPSVRMITTSGPTSEKPARSHPWTPDDSTDTNGSDNSIPMAYLTLDHQLQPLAPCPNSKESMAVFEQHCKMAQEYMKVQTEIALLLQRKQELVAELDQDEKDQQNTSRLVQEHKKLLDENKSLSTYYQQCKKQLEVIRSQQQKRQGTS
# modifications: left off: small tags and cut ends
# notes: TAK1 Δ1-300 N-terminal deletion mutant
# Legend:
# C3H10T½-BMP2 cells [1] = assay: FACS for apoptosis and cell cycle progression; assay type: cell-based, murine; conditions: CDDP 25 μM, TAK1 variants stably co-expressed; for apoptosis (subG0-G1 peak): etoposide 10 μM
# Procedure: Exponentially growing cells were harvested 48 hours post-seeding or at different stages at and after confluence by trypsinization and fixation with 80% methanol. Cellular DNA content was determined by staining cells with RNAseS/propidium iodide, and measuring fluorescence in a Becton Dickinson FACScan. For each cell population, 10,000 cells were analyzed, and the proportions in G0/G1, G2/M and S-phases were estimated by using Modfit cell cycle analysis software. Information on cell size (e.g. due to differentiation) and complexity could be obtained from forward and side scatter data following evaluation of relevant cell populations.
# To determine whether TAK1-mediated effects in the assay systems above resulted from apoptosis, C3H10T½-BMP2 cells co-expressing TAK1 variants were assayed by FACS for apoptosis and cell cycle progression.
# SMAD proteins = assay: Co-immunoprecipitation of TAK1 variants with SMADs from HEK293T cells; assay type: binding; conditions: SMAD7, R-SMADs 1-3, 5, SMAD4
# Procedure: (§1) Co-immunoprecipitation were conducted as described (Verschueren K et al, J. Biol. Chem, 274: 20489-20498, 1999). Human embryonic kidney (HEK) 293T cells were plated at 3×10^6 cells/petri dish (55 square centimeters (cm^2)) one day prior to transfection. For transient transfections, 1 μg of Flag-tagged expression plasmid and 2 μg of Myc- or HA-tagged expression plasmids were utilized. DNA content was normalized with empty vector. Transfections were performed with FuGENE6 (Roche, Mannheim). Roughly 36 hours post-transfection cells were dislodged from dishes and harvested by centrifugation. Pellets were shock frozen in liquid nitrogen. […] reactions were performed in lysis buffer. Cell extracts and immunoprecipitates were analyzed by SDS-PAGE and Western blot analysis using the appropriate antibodies.
# Toward this end, co-immunoprecipitation with various combinations of wild-type TAK1 (TAK1wt) and R-SMADs, either in a latent form or post-activation by constitutively active BMP type I receptor (ALK6ca, BMPR-IB) or activin type I receptor ALK4ca (ActR-IB), I-SMADs and SMAD4, were conducted. […] TAK1 interaction with R-SMADs was typically stronger in the absence of constitutively active receptors (the exception being SMAD3), which may reflect a reduced affinity for activated, i.e. phosphorylated R-SMADs by TAK1, except with SMAD3.
# SMAD proteins only bind TAK1 with an intact or a constitutively active kinase domain. Different TAK1 variants such as TAK1wt, TAK1ca, TAK1dn and two deletions, TAKDN (lacking amino acids 1-300; FIG. 1a) and TAKDC (lacking 301-606; FIG. 1a), respectively, were tested for their ability to bind to R-SMADs (using SMAD1 as a representative) or I-SMAD6 and I-SMAD7.
# SMAD1:SMAD4 interaction = target: T1, SMAD1:SMAD4 interaction (Homo sapiens, UniProt Q13485+Q15797); assay: Co-immunoprecipitation of SMAD1:SMAD4 hetero-oligomerization in HEK293T cells; assay type: cell-based; conditions: receptor-mediated hetero-oligomerization
# T1 construct: expressed in transfected cells; host or cells: HEK293T
# Procedure: as §1
# R-SMAD hetero-oligomerization with SMAD4 and subsequent accumulation in the nucleus is essential for biological activity.
# [2] = test system: SMAD1-mediated transcription; assay: SMAD1-SBE CAT reporter assay; assay type: cell-based, human; conditions: dose-dependent, following activation by constitutively active receptors
# Procedure: Reporter assays using the GALA DNA binding domain fused to various forms of SMAD proteins were performed as described (Meersseman, G at al, Mech. Dev, 61: 127-140, 1997). Briefly, 420 nanograms (ng) DNA was transfected/well (24 well-plate seeded with 1×10^5 HEK 293T cells) one day prior to transfection. The DNA mix included a plasmid expressing β-galactosidase under the control of the RSV promoter, for normalization purposes and a reporter plasmid encoding firefly luciferase under the control of 5 GAL4 binding sites upstream of a minimal TATA box (pG5 luc, Promega, Mannheim) and combinations of effector plasmids. The DNA content was normalized with empty vector.
# Cells were harvested and lysed. β-Galactosidase (β-gal) activity was measured via the luminescent β-galactosidase kit II (Clontech, Palo Alto, Calif.), and luciferase activity via the luciferase assay system (Promega, Mannheim). All results are expressed as luciferase activity normalized with β-gal values (“relative luciferase activities”). Reporter assays with the SMAD1 DNA binding element SBE-9 (GCCG×9) (Kusanagi K et al, Mol Biol Cell 11: 555-565, 2000) cloned into pCAT5 vector (Boshart M et al, Gene 110: 129-130, 1992) were performed similarly except that cells were lysed in CAT lysis buffer. CAT enzyme was measured via CAT ELISA assay and β-gal via chemiluminescent β-gal reporter gene assay (Roche, Mannheim). […]
# C3H10T½-BMP2 cells [3] = assay: Histological analysis and alkaline phosphatase staining of C3H10T½-BMP2 cells; assay type: cell-based, murine
# Procedure: Murine C3H10T½ progenitor cells were cultured in high-glucose DMEM containing 10% fetal calf serum, as described (Ahrens Met al, DNA Cell Biol, 12: 871-880, 1993). Cells were stably transfected with expression plasmids encoding wt TAK1, dominant-negative (dn) or constitutively active (ca) TAK1 in pMT7T3-f1 using DOSPER™ according to the manufacturer's protocol (Roche, Mannheim) and a selection plasmid conferring puromycin resistance (pBSpacDp: parental C3H10T½ cells) or G418-resistance (pAG60: BMP2-expressing C3H10T½ cells). Individual clones were picked, propagated, and tested for recombinant expression of TAK1-variants by RT-PCR using a vector-specific and a gene-specific primer. Control cell lines (empty to expression vector) were established at the same time. Cells were plated at a density of 5,000 cells/cm^2. After reaching confluence (arbitrarily termed day 0) ascorbic acid (50 microgram/milliliter (μg/ml)) and b-glycerophosphate (10 millimolar (mM)) were added.
# (§2) Proteoglycan-secreting chondrocytes were identified by staining with Alcian Blue at pH 2.5 (Alcian Blue 8GS, Roth, Karlsruhe).
# Osteoblast formation was evaluated as a measure of TAK1 influence on osteo-/chondrogenic differentiation potential. C3H10T½-BMP2 cells co-expressing TAK1 and its molecular variants were assessed histologically for alkaline phosphatase (ALP) activity (FIG. 8C), which is indicative of osteoblast differentiation.
# C3H10T½-BMP2 cells [4] = assay: Semi-quantitative RT-PCR of osteo-/chondrogenic marker genes and Alcian Blue staining; assay type: cell-based, murine; conditions: co-expression in C3H10T½-BMP2 cells
# Procedure: as §2
# Total cellular RNA was prepared by TriReagent LS according to the manufacturer's protocol (Molecular Research Center Inc., Ohio, Miss.). Five μg of total RNA was reverse transcribed with oligo-dT primers and cDNA aliquots were subjected to PCR. RT-PCR was normalized by the transcriptional levels of HPRT. The primer pairs and PCR conditions used to evaluate osteo-/chondrogenic differentiation, for collagen Ia1, collagen IIa1, osteocalcin, and the PTH/PTHrP-receptor have been described (Hoffmann A et al, J. Cell Sci 115: 769-781, 2002).
# [5] = test system: p38 MAPK and JNK phosphorylation; assay: p38 MAPK and JNK phosphorylation in transfected cells; assay type: cell-based; conditions: data not shown
# Description: Among nine tissues examined, both TAK1 long and short forms were expressed in every tissue assessed apart from kidney (FIG. 1B). TAK1 tissue-specific expression levels varied, with minimal lung expression detected. Both TAK1 splice variants were comparably expressed in the mesenchymal progenitor line, C3H10T½ (see FIG. 8A). TAK1 mutants generated from the long transcript form included dominant-negative (TAK1dn) and constitutively active (TAK1ca) variants as compared to wild-type control (TAK1wt).
# T1 sequence (Q15797 whole entry): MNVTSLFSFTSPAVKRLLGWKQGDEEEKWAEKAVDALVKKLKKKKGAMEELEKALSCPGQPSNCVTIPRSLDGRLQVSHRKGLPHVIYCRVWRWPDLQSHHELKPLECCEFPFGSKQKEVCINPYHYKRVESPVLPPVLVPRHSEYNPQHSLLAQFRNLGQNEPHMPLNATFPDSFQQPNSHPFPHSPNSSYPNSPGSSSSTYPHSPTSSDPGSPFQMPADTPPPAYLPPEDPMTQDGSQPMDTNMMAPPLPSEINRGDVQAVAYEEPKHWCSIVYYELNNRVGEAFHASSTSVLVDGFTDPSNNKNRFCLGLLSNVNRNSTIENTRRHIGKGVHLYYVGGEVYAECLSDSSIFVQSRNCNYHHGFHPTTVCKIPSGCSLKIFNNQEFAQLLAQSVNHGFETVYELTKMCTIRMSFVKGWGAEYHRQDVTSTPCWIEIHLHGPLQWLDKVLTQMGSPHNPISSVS
# T1 sequence (Q13485 whole entry): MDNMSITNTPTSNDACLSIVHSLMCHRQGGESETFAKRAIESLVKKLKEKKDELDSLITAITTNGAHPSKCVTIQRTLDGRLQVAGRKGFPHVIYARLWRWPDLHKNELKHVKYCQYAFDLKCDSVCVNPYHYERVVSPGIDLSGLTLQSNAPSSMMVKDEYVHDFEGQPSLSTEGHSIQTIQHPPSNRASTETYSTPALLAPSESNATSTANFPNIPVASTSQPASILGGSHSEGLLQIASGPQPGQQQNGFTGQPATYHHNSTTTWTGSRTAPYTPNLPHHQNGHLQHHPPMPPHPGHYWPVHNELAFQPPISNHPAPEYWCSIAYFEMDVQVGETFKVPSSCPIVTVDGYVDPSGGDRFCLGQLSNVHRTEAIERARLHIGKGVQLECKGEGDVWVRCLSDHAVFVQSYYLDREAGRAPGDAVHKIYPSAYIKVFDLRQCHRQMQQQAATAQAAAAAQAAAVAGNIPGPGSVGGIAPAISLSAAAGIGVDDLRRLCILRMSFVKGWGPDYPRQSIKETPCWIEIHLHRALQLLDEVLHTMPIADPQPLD
molecule,measurement,setting,value
"[NH2][Pt]([NH2])([Cl])[Cl] [CDDP, cisplatin]",cell cycle effect,C3H10T½-BMP2 cells [1],arrested maturation in the G2-M phase
same,apoptosis (subG0-G1 peak),C3H10T½-BMP2 cells [1],did not cause measurable apoptosis
COc1cc([C@@H]2c3cc4c(cc3[C@@H](O[C@@H]3O[C@@H]5CO[C@@H](C)O[C@H]5[C@H](O)[C@H]3O)[C@H]3COC(=O)[C@H]23)OCO4)cc(OC)c1O [etoposide],apoptosis (subG0-G1 peak),C3H10T½-BMP2 cells [1],induced a significant subG0-G1 peak
B1,binding of TAK1 variant to SMAD proteins (co-immunoprecipitation),SMAD proteins,able to interact
same,SMAD1:SMAD4 interaction,SMAD1:SMAD4 interaction,enhanced
same,maximum reduction of SMAD1 transcription (CAT reporter),[2],30%
same,growth phenotype of C3H10T½-BMP2 cells expressing the TAK1 variant,C3H10T½-BMP2 cells [3]; after confluence,C3H10T½ wild-type phenotype
same,osteoblast-like cell formation / ALP activity,"C3H10T½-BMP2 cells [3]; compared to C3H10T½-BMP2 cells, 10 days post-confluence",interfered with osteoblast-like cell formation
same,"expression of osteogenic marker genes (osteocalcin, PTH/PTHrP receptor)",C3H10T½-BMP2 cells [4],down-regulated expression of osteogenic genes
same,apoptosis (subG0-G1 peak),C3H10T½-BMP2 cells [1],did not induce apoptosis
same,biological activity as evidenced by p38 MAPK and JNK phosphorylation,[5],biologically active
B2,binding of TAK1 variant to SMAD proteins (co-immunoprecipitation),SMAD proteins,unable to bind significantly
